The record followed here is the supplement of paper PMC9732359.

± gives the uncertainty stated by the source.

This series can be described thus: protein stability index of a GFP-peptide fusion (yeast GPS) (PSI 1-4); higher = more stable; sorted into four equal gates, so the index is relative within each strain. The essentials:
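Mid-log yeast cultures in leucine-free medium, carrying a pooled plasmid library, were sorted into four equal gates by their GFP/Cherry fluorescence ratio. Each plasmid expressed Cherry along with GFP fused upstream of a tiled 17-residue yeast protein peptide. Plasmids recovered from each gate were PCR-amplified and Illumina-sequenced, with reads assigned to strains by barcodes. The protein stability index was obtained by summing each gate's read frequency weighted by its gate number.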

As to NDFFDNGDNLYGNDEEV [RPN4], the protein stability index stood at 1.21 ± 0.2 (doa10∆), 1.62 ± 0.29 (pdr5∆) and 1.05 ± 0.067 (ubr1∆).

For the sequence NDFFPGEVVYLRKQKDS [ITC1], the protein stability index was determined as 2.03 ± 0.062 (doa10∆), 1.39 ± 0.059 (pdr5∆), 1.35 ± 0.12 (san1∆) and 1.48 ± 0.081 (ubr1∆).

With NDFKKIGRENENENEDD [POP5], the protein stability index worked out at 3.22 ± 0.11 (doa10∆), 3.28 ± 0.097 (pdr5∆), 3.16 ± 0.067 (san1∆) and 2.79 ± 0.11 (ubr1∆).

With NDHSKSANPKKTTITRV [SWI3], the protein stability index runs as follows: (doa10∆) 2.9 ± 0.11; (pdr5∆) 3.09 ± 0.092; (san1∆) 3.14 ± 0.08; (ubr1∆) 2.97 ± 0.051.

With NDIKLFVDDTNVYRVTV [PRP8], the protein stability index reads like this: (doa10∆) 2.58 ± 0.084; (pdr5∆) 2.63 ± 0.091; (san1∆) 2.43 ± 0.072; (ubr1∆) 2.57 ± 0.053.

Regarding NDSETHTEDESTKELKF [BRN1], the protein stability index reads like this: (doa10∆) 3.2 ± 0.17; (pdr5∆) 3.13 ± 0.13; (san1∆) 3.17 ± 0.094; (ubr1∆) 3.19 ± 0.068.

On to NDTISEDILQGIFNLLN [NUT1], for which the protein stability index was 2.38 ± 0.066 (doa10∆), 2.32 ± 0.057 (pdr5∆), 2.13 ± 0.12 (san1∆) and 2.6 ± 0.088 (ubr1∆).

As to NEAGRKLSDIFLSKPSK [SNF2], the protein stability index turned out to be 2.94 ± 0.08 (doa10∆), 3.27 ± 0.087 (pdr5∆), 3.21 ± 0.081 (san1∆) and 3.04 ± 0.093 (ubr1∆).

For the sequence NEAPPKTSLADWQKEDG [YMR153W/NUP53], the protein stability index amounted to 2.74 ± 0.13 (doa10∆), 3.14 ± 0.1 (pdr5∆), 2.56 ± 0.16 (san1∆) and 2.93 ± 0.15 (ubr1∆).

Turning to NEDENIQLIKILNSHFD [YJL041W/NSP1], the protein stability index by setting is: (doa10∆) 2.77 ± 0.052; (pdr5∆) 2.98 ± 0.056; (san1∆) 3.142 ± 0.03; (ubr1∆) 2.85 ± 0.037.

With NEENDLDVDPAKRIRVS [RPB2], the protein stability index (doa10∆) came out at 3.01 ± 0.07, the protein stability index (pdr5∆) amounted to 3 ± 0.07, the protein stability index (san1∆) was determined as 3.11 ± 0.12 and the protein stability index (ubr1∆) worked out at 3.02 ± 0.047.

For the sequence NEKEQLSFINPKTGKVE [SEC65], the protein stability index by setting is: (doa10∆) 2.98 ± 0.11; (pdr5∆) 2.89 ± 0.11; (san1∆) 2.98 ± 0.064; (ubr1∆) 2.99 ± 0.059.

With NELQEERLKVPILVTLV [POP6], the protein stability index by setting is: (doa10∆) 1.67 ± 0.034; (pdr5∆) 1.99 ± 0.036; (san1∆) 1.84 ± 0.053; (ubr1∆) 1.7 ± 0.023.

As for NEMLLKRVTKVKRLLFT [MTW1], the protein stability index by setting is: (doa10∆) 1.26 ± 0.054; (pdr5∆) 1.56 ± 0.049; (san1∆) 1.21 ± 0.11; (ubr1∆) 1.42 ± 0.036.

Turning to NEQEEKSEEVKAEDDTG [RPC37], the protein stability index was found to be 3.2 ± 0.17 (doa10∆), 2.94 ± 0.2 (san1∆) and 2.85 ± 0.17 (ubr1∆).

With NETIIDNFSPHQNVIIG [SMC3], the protein stability index came to 2.56 ± 0.17 (pdr5∆) and 2.29 ± 0.13 (san1∆).

For NEVCLEKENRFEIVDRE [SMC4], the protein stability index was 2.62 ± 0.089 (doa10∆), 2.92 ± 0.11 (pdr5∆), 3.1 ± 0.1 (san1∆) and 3.3 ± 0.082 (ubr1∆).

Regarding NEVYSAYVVNDTAPKPN [DLS1], the protein stability index runs as follows: (doa10∆) 3.47 ± 0.12; (pdr5∆) 3.1 ± 0.12; (san1∆) 2.95 ± 0.099; (ubr1∆) 3.25 ± 0.066.

For the sequence NFLETIASTEKPENKTD [SIR4], the protein stability index came out at 2.94 ± 0.1 (doa10∆), 2.93 ± 0.089 (pdr5∆), 2.77 ± 0.11 (san1∆) and 3.13 ± 0.092 (ubr1∆).

For NFLLPDIFGDSELFDEW [ISW2], the protein stability index worked out at 2.25 ± 0.059 (doa10∆), 2.46 ± 0.076 (pdr5∆), 2.79 ± 0.07 (san1∆) and 2.72 ± 0.059 (ubr1∆).

NFNASLQLTTNTEQGDS [SNM1]: the protein stability index (doa10∆) turned out to be 2.02 ± 0.039, the protein stability index (pdr5∆) is 2.3 ± 0.064, the protein stability index (san1∆) was found to be 2.49 ± 0.055 and the protein stability index (ubr1∆) was determined as 1.85 ± 0.071.

NGDKKVDIYSLPLISTD [YMR129W/POM152]: the protein stability index runs as follows: (doa10∆) 2.88 ± 0.076; (pdr5∆) 2.76 ± 0.056; (san1∆) 2.88 ± 0.034; (ubr1∆) 3.03 ± 0.051.

In the case of NGGDKELEMIGGTNEDD [YCS4], the protein stability index by setting is: (doa10∆) 3.25 ± 0.22; (pdr5∆) 2.79 ± 0.21; (san1∆) 2.46 ± 0.22; (ubr1∆) 3.05 ± 0.27.

Turning to NGGNNTQQPGTNSHYNN [SNF2], the protein stability index is 3.05 ± 0.058 (doa10∆), 3.16 ± 0.063 (pdr5∆), 3.04 ± 0.054 (san1∆) and 3.05 ± 0.047 (ubr1∆).

Consider NGKDSEIMYTGVSISVS [SMC3], for which the protein stability index runs as follows: (doa10∆) 3.29 ± 0.22; (pdr5∆) 2.87 ± 0.21; (san1∆) 2.83 ± 0.1; (ubr1∆) 2.29 ± 0.17.

NGNWEVGVHIADVTHFV [DIS3]: the protein stability index is, setting by setting: (doa10∆) 2.55 ± 0.052; (pdr5∆) 2.09 ± 0.061; (san1∆) 2.9 ± 0.047; (ubr1∆) 2.62 ± 0.048.

NGQEQQGPVKNTQLHGP [RGR1] gave a protein stability index (doa10∆) of 3.02 ± 0.077, a protein stability index (pdr5∆) of 3.12 ± 0.057, a protein stability index (san1∆) of 3.05 ± 0.052 and a protein stability index (ubr1∆) of 3.1 ± 0.044.

Turning to NGSEKVLIAQERSAGNI [RPB2], the protein stability index reads like this: (doa10∆) 3.1 ± 0.17; (pdr5∆) 3.44 ± 0.21; (san1∆) 3.12 ± 0.12; (ubr1∆) 3.06 ± 0.061.

In the case of NGTMINEVIDKLKNENT [PCI8], the protein stability index was 2.84 ± 0.056 (doa10∆), 2.91 ± 0.052 (pdr5∆), 2.84 ± 0.047 (san1∆) and 3.09 ± 0.037 (ubr1∆).

NGVIIAADNLGSYGSLL [PRE4]: the protein stability index runs as follows: (doa10∆) 3.05 ± 0.13; (pdr5∆) 3.15 ± 0.13; (san1∆) 2.92 ± 0.21; (ubr1∆) 3.12 ± 0.2.

As to NGVVIATEKKSSSPLAM [PRE8], the protein stability index is, setting by setting: (doa10∆) 2.91 ± 0.19; (pdr5∆) 3 ± 0.17; (san1∆) 2.55 ± 0.26; (ubr1∆) 3.07 ± 0.11.

Turning to NHASMDVYNRELDEHTT [BRR2], the protein stability index was 3.27 ± 0.068 (doa10∆), 3.16 ± 0.063 (pdr5∆), 3.26 ± 0.047 (san1∆) and 3.26 ± 0.056 (ubr1∆).

In the case of NHGGSLGKYDLTVIEKL [SRP68], the protein stability index stood at 3.53 ± 0.14 (san1∆) and 3.41 ± 0.29 (ubr1∆).

Consider NHNGSALLIEVFTALLR [ITC1], for which the protein stability index is, setting by setting: (doa10∆) 1.68 ± 0.074; (pdr5∆) 1.38 ± 0.055; (san1∆) 1.47 ± 0.094; (ubr1∆) 1.35 ± 0.053.

As for NIALVSKLRNNIRSQLL [SRP54], the protein stability index was 2.13 ± 0.069 (doa10∆), 2.56 ± 0.058 (pdr5∆), 2.5 ± 0.053 (san1∆) and 2.61 ± 0.065 (ubr1∆).

In the case of NIELHSLYTSREPRVVS [PUP1], the protein stability index is 2.56 ± 0.1 (doa10∆), 3.1 ± 0.068 (pdr5∆), 3.22 ± 0.09 (san1∆) and 3.07 ± 0.078 (ubr1∆).

Consider NIKSNDFSIRKTCAKSV [ECM29], for which the protein stability index was found to be 2.55 ± 0.087 (doa10∆), 2.24 ± 0.1 (pdr5∆), 2.27 ± 0.18 (san1∆) and 2.83 ± 0.15 (ubr1∆).
